Experiments:
Test in all cases: cell-based or functional assay
[1] = target: HIV Env of isolate 57128.vrc15 (HIV)
[2] = target: Env of HIV isolate TZBD.02 (clade C) (HIV)
[3] = target: Env of HIV isolate TH023.6 (clade AE) (HIV)
[4] = target: Env of HIV isolate 00836-2.5 (clade C) (HIV)
[5] = target: HIV Env of isolate 001428-2.42 (HIV)
[6] = target: Env of HIV isolate CH038.12 (clade BC) (HIV)
[7] = target: Env of HIV isolate 0921.v2.c14 (clade C) (HIV)
[8] = target: HIV Env of isolate P0402.c2.11 (HIV)
[9] = target: HIV Env of isolate CH117.4 (HIV)
[10] = target: Env of HIV isolate BB539.2B13 (clade A) (HIV)
[11] = target: Env of HIV isolate ZM233.6 (clade C) (HIV)
[12] = target: Env of HIV isolate CAP45.G3 (clade C) (HIV)
[13] = target: Env of HIV isolate SO18.18 (clade C) (HIV)
[14] = target: Env of HIV isolate CNE53 (clade C in Table 7) (HIV)
[15] = target: Env of HIV isolate 96ZM651.02 (clade C) (HIV)
[16] = target: Env of HIV isolate BJOX010000.06.2 (clade AE) (HIV)
[17] = target: Env of HIV isolate 3326.v4.c3 (clade CD) (HIV)
[18] = target: Env of HIV isolate 25925-2.22 (clade C) (HIV)
[19] = target: HIV Env of isolate CAP210.E8 (HIV)
[20] = target: HIV Env of isolate ZM249.1 (HIV)
[21] = target: HIV Env of isolate CNE19 (HIV)
[22] = target: HIV Env of isolate 3168.v4.c10 (HIV)
[23] = target: Env of HIV isolate 6405.v4.c34 (clade D) (HIV)
[24] = target: HIV Env of isolate 3817.v2.c59 (HIV)
[25] = target: HIV Env of isolate 288.38 (HIV)
[26] = target: HIV Env of isolate ZM55.28a (HIV)
[27] = target: Env of HIV isolate CNE4 (clade B) (HIV)
[28] = target: Env of HIV isolate TH966.8 (clade AE) (HIV)
[29] = target: HIV Env of isolate 00836-2.5 (HIV)
[30] = target: Env of HIV isolate CNE19 (clade BC) (HIV)
[31] = target: Env of HIV isolate CNE20 (clade BC) (HIV)
[32] = target: Env of HIV isolate BL01.DG (clade B) (HIV)
[33] = target: Env of HIV isolate JRFL.JB (clade B) (HIV)
[34] = target: Env of HIV isolate KER2018.11 (clade A) (HIV)
[35] = target: Env of HIV isolate CNE57 (clade B) (HIV)
[36] = target: Env of HIV isolate 269-12 (clade AG) (HIV)
[37] = target: HIV Env of isolate CNE20 (HIV)
[38] = target: Env of HIV isolate DU172.17 (clade C) (HIV)
[39] = target: Env of HIV isolate TZA125.17 (clade C) (HIV)
[40] = target: Env of HIV isolate CAAN.A2 (clade B) (HIV)
[41] = target: Env of HIV isolate T266-60 (clade AG) (HIV)
[42] = target: Env of HIV isolate Q769.d22 (clade A) (HIV)
[43] = target: HIV Env of isolate DU422.01 (HIV)
[44] = target: HIV Env of isolate NKU3006.ec1 (HIV)
[45] = target: HIV Env of isolate BR025.9 (HIV)
[46] = target: Env of HIV isolate 3873.v1.c24 (clade C) (HIV)
[47] = target: Env of HIV isolate 288.38 (clade C) (HIV)
[48] = target: HIV Env of isolate 6322.v4.c1 (HIV)
[49] = target: HIV Env of isolate 191821.E6.1 (HIV)
[50] = target: Env of HIV isolate CM244.ec1 (clade AE) (HIV)

B1: ePGT121.18 (ePGT121.18.H1 VH and ePGT121.17.L1 VL) (antibody, V domains shown)
VH: QMQLQESGPGLVKPGETLSLTCSVSGASISSSYWSWLRETPGKGLEWIGYTHHSGDTNYAPSLKSRVHLGLHPSKNQVSLSLTSVTAADTAVYYCARTLHGRRIYGVVAFNEYYTYFYWPTWGKGTQVTVSS
VL: SDISVAPGETVRITCGGESIGSRAVQWYQHRPGQAPRLIIYNNQDRPPGIPERFSGSPDIDFGTTATLTISNVEAGDEATYYCHIWDSRRPTNWELGPGTTLTVL
B1 was tested, and the IC80, pseudovirus neutralization (M1) [1] was 0.009 µg/mL, the IC80, pseudovirus neutralization (M2) [1] was 0.01 µg/mL and the IC50, pseudovirus neutralization [2] was 0.002 µg/mL. The IC50, pseudovirus neutralization [3] was > 50 µg/mL, the IC50, pseudovirus neutralization [4] was 14.4 µg/mL and the IC80, pseudovirus neutralization (M1) [5] was 0.003 µg/mL. It also gave an IC80, pseudovirus neutralization (M2) [5] of 0.004 µg/mL, an IC50, pseudovirus neutralization [6] of 0.0008 µg/mL and an IC50, pseudovirus neutralization [7] of 0.091 µg/mL. The IC80, pseudovirus neutralization (M1) [8] was 0.004 µg/mL, the IC80, pseudovirus neutralization (M2) [8] was 0.005 µg/mL and the IC80, pseudovirus neutralization (M1) [9] was > 50 µg/mL. The IC80, pseudovirus neutralization (M2) [9] was > 50 µg/mL, the IC50, pseudovirus neutralization [10] was > 50 µg/mL and the IC50, pseudovirus neutralization [11] was 0.006 µg/mL. It also gave an IC50, pseudovirus neutralization [12] of 1.74 µg/mL, an IC50, pseudovirus neutralization [13] of 0.003 µg/mL and an IC50, pseudovirus neutralization [14] of 0.003 µg/mL. The IC50, pseudovirus neutralization [15] was 0.0007 µg/mL, the IC50, pseudovirus neutralization [16] was > 50 µg/mL and the IC50, pseudovirus neutralization [17] was 0.306 µg/mL. For the same binder, the IC50, pseudovirus neutralization [18] was 0.003 µg/mL, the IC80, pseudovirus neutralization (M1) [19] was 0.078 µg/mL and the IC80, pseudovirus neutralization (M2) [19] was 0.106 µg/mL. The IC80, pseudovirus neutralization (M1) [20] was 0.992 µg/mL, the IC80, pseudovirus neutralization (M2) [20] was 0.874 µg/mL and the IC80, pseudovirus neutralization (M1) [21] was 0.006 µg/mL. For the same binder, the IC80, pseudovirus neutralization (M2) [21] was 0.004 µg/mL, the IC80, pseudovirus neutralization (M1) [22] was 0.034 µg/mL and the IC80, pseudovirus neutralization (M2) [22] was 0.045 µg/mL. It also gave an IC50, pseudovirus neutralization [23] of 0.001 µg/mL, an IC80, pseudovirus neutralization (M1) [24] of 2.58 µg/mL and an IC80, pseudovirus neutralization (M2) [24] of 6.79 µg/mL. For the same binder, the IC80, pseudovirus neutralization (M1) [25] was 0.002 µg/mL, the IC80, pseudovirus neutralization (M2) [25] was 0.002 µg/mL and the IC80, pseudovirus neutralization (M1) [26] was 0.014 µg/mL. The IC80, pseudovirus neutralization (M2) [26] was 0.014 µg/mL, the IC50, pseudovirus neutralization [27] was 0.002 µg/mL and the IC50, pseudovirus neutralization [28] was > 50 µg/mL. For the same binder, the IC80, pseudovirus neutralization (M1) [29] was > 50 µg/mL, the IC80, pseudovirus neutralization (M2) [29] was > 50 µg/mL and the IC50, pseudovirus neutralization [30] was 0.001 µg/mL. It also gave an IC50, pseudovirus neutralization [31] of 0.001 µg/mL, an IC50, pseudovirus neutralization [32] of 6.91 µg/mL and an IC50, pseudovirus neutralization [33] of 0.006 µg/mL. For the same binder, the IC50, pseudovirus neutralization [34] was > 50 µg/mL, the IC50, pseudovirus neutralization [35] was 0.002 µg/mL and the IC50, pseudovirus neutralization [36] was 0.003 µg/mL. It also gave an IC80, pseudovirus neutralization (M1) [37] of 0.003 µg/mL, an IC80, pseudovirus neutralization (M2) [37] of 0.004 µg/mL and an IC50, pseudovirus neutralization [38] of 0.003 µg/mL. The IC50, pseudovirus neutralization [39] was 0.028 µg/mL, the IC50, pseudovirus neutralization [40] was 0.002 µg/mL and the IC50, pseudovirus neutralization [41] was 0.003 µg/mL. For the same binder, the IC50, pseudovirus neutralization [42] was > 50 µg/mL, the IC80, pseudovirus neutralization (M1) [43] was 0.013 µg/mL and the IC80, pseudovirus neutralization (M2) [43] was 0.013 µg/mL. For the same binder, the IC80, pseudovirus neutralization (M1) [44] was > 50 µg/mL, the IC80, pseudovirus neutralization (M2) [44] was > 50 µg/mL and the IC80, pseudovirus neutralization (M1) [45] was 0.004 µg/mL. It also gave an IC80, pseudovirus neutralization (M2) [45] of 0.004 µg/mL, an IC50, pseudovirus neutralization [46] of 0.003 µg/mL and an IC50, pseudovirus neutralization [47] of 0.0008 µg/mL. The IC80, pseudovirus neutralization (M1) [48] was > 50 µg/mL, the IC80, pseudovirus neutralization (M2) [48] was > 50 µg/mL and the IC80, pseudovirus neutralization (M1) [49] was 0.095 µg/mL. It also gave an IC80, pseudovirus neutralization (M2) [49] of 0.105 µg/mL and an IC50, pseudovirus neutralization [50] of 0.46 µg/mL.

B2: ePGT121.18.17 (ePGT121.18.H17 VH and ePGT121.17.L1 VL) (antibody, V domains shown)
VH: QMQLQESGPGLVKPGETLSLTCSVSGASISSSYWSWLRETPGKGLEWIGYTHHSGDTNYAPSLKSRVTIGLDPSKNQVSLSLTSVTAADTAVYYCARTLHGRRIYGVVAFNEYYTYFYWPTWGKGTQVTVSS
VL: SDISVAPGETVRITCGGESIGSRAVQWYQHRPGQAPRLIIYNNQDRPPGIPERFSGSPDIDFGTTATLTISNVEAGDEATYYCHIWDSRRPTNWELGPGTTLTVL
With B2 the IC80, pseudovirus neutralization [1] was 0.038 µg/mL, the IC50, pseudovirus neutralization [2] was 0.003 µg/mL and the IC50, pseudovirus neutralization [3] was > 50 µg/mL. The IC50, pseudovirus neutralization [4] was 48.9 µg/mL, the IC80, pseudovirus neutralization [5] was 0.008 µg/mL and the IC50, pseudovirus neutralization [6] was 0.002 µg/mL. The IC50, pseudovirus neutralization [7] was 0.189 µg/mL, the IC80, pseudovirus neutralization [8] was 0.009 µg/mL and the IC80, pseudovirus neutralization [9] was > 50 µg/mL. For the same binder, the IC50, pseudovirus neutralization [10] was > 50 µg/mL, the IC50, pseudovirus neutralization [11] was 0.017 µg/mL and the IC50, pseudovirus neutralization [12] was 8.91 µg/mL. It also gave an IC50, pseudovirus neutralization [13] of 0.004 µg/mL, an IC50, pseudovirus neutralization [14] of 0.006 µg/mL and an IC50, pseudovirus neutralization [15] of 0.003 µg/mL. The IC50, pseudovirus neutralization [16] was > 50 µg/mL, the IC50, pseudovirus neutralization [17] was 0.633 µg/mL and the IC50, pseudovirus neutralization [18] was 0.011 µg/mL. For the same binder, the IC80, pseudovirus neutralization [19] was 0.645 µg/mL, the IC80, pseudovirus neutralization [20] was 4.25 µg/mL and the IC80, pseudovirus neutralization [21] was 0.014 µg/mL. For the same binder, the IC80, pseudovirus neutralization [22] was 0.171 µg/mL, the IC50, pseudovirus neutralization [23] was 0.004 µg/mL and the IC80, pseudovirus neutralization [24] was 17.9 µg/mL. For the same binder, the IC80, pseudovirus neutralization [25] was 0.003 µg/mL, the IC80, pseudovirus neutralization [26] was 0.029 µg/mL and the IC50, pseudovirus neutralization [27] was 0.008 µg/mL. For the same binder, the IC50, pseudovirus neutralization [28] was > 50 µg/mL, the IC80, pseudovirus neutralization [29] was > 50 µg/mL and the IC50, pseudovirus neutralization [30] was 0.003 µg/mL. The IC50, pseudovirus neutralization [31] was 0.002 µg/mL, the IC50, pseudovirus neutralization [32] was 1.51 µg/mL and the IC50, pseudovirus neutralization [33] was 0.011 µg/mL. The IC50, pseudovirus neutralization [34] was > 50 µg/mL, the IC50, pseudovirus neutralization [35] was 0.006 µg/mL and the IC50, pseudovirus neutralization [36] was 0.01 µg/mL. The IC80, pseudovirus neutralization [37] was 0.005 µg/mL, the IC50, pseudovirus neutralization [38] was 0.007 µg/mL and the IC50, pseudovirus neutralization [39] was 0.18 µg/mL. The IC50, pseudovirus neutralization [40] was 0.004 µg/mL, the IC50, pseudovirus neutralization [41] was 0.014 µg/mL and the IC50, pseudovirus neutralization [42] was > 50 µg/mL. The IC80, pseudovirus neutralization [43] was 0.036 µg/mL, the IC80, pseudovirus neutralization [44] was > 50 µg/mL and the IC80, pseudovirus neutralization [45] was 0.008 µg/mL. For the same binder, the IC50, pseudovirus neutralization [46] was 0.011 µg/mL, the IC50, pseudovirus neutralization [47] was 0.002 µg/mL and the IC80, pseudovirus neutralization [48] was > 50 µg/mL. The IC80, pseudovirus neutralization [49] was 0.727 µg/mL and the IC50, pseudovirus neutralization [50] was 7.23 µg/mL.

B3: ePGT121.15.H2.L1 (antibody, V domains shown)
VH: QMQLQESGPGLVKPGETLSLTCSVSGASISSSYWSWLRETPGKGLEWIGYTHHSGDTNYAPSLKSRVHLGLHPSKNQVSLSLTSVTAADTAVYYCARTLHGRRIYGVVAFNEWFTYFYWEVWGKGTQVTVSS
VL: SDISVAPGETVRISCGGESIGSRAVQWYQHRAGQAPKLIIYNNQDRPPGIPERFSGSPDIDFGTTATLTITNVEAGDEATYYCHIWDSRRPTNWVFGGGTTLTVL
B3 showed a neutralization (Table 6 value) [21] of 0.000602, a neutralization (Table 6 value) [24] of 0.00328 and a neutralization (Table 6 value) [37] of 0.000538.
